In patent US20240342298A1, “METHODS OF TREATING TUMORS BY USING MOLECULAR CONSTRUCT” (Immunwork Inc., priority 2023, published 2024):

Assays:
H929 cells = assay: alamarBlue cell viability assay, H929 cells; type: cell-based, human; settings: even at doses >20 μM
Protocol: (§1) Briefly, H929, U266-CD38^−, MM.1S, and Daudi cells were seeded at 5,000 cells/well in 96-well plates and co-cultured with fresh medium containing different test articles with the indicated concentrations at 37° C. for 5 hours, 1 day, 3 days, or 5 days. The viabilities of the cells were determined by alamarBlue™ cell viability reagent. About 10 μl alamarBlue™ cell viability reagent was added to the cells with a final concentration of 10% v/v, followed by incubating at 37° C. for 1.5 hours. The fluorescence was measured on a microplate reader in arbitrary fluorescent units following excitation at 560 nm and emission at 590 nm.
(§2) H929 cells were incubated for 5 hours, 1 day, 3 days, or 5 days (FIGS. 12A-12D), and MM.1S, U266-CD38-, and Daudi cells were incubated for 5 days (FIGS. 12E-12G). Then, cell viability was determined.

human CD38 = target: T1, human CD38 (Homo sapiens, UniProt P28907); assay: cell-based ELISA binding to human CD38-overexpressing 293T cells
T1 construct: The cDNA of full-length human CD38 was cloned into pCDH-CMV-MCS-Ef1α-Puro expression vector; expressed in transfected cells; host or cells: HEK293T (lentiviral transduction with pCDH-CMV-CD38, puromycin selection)
Protocol: The cDNA of full-length human CD38 was cloned into pCDH-CMV-MCS-Ef1α-Puro expression vector to generate lentiviral-based CD38-expressing plasmid, pCDH-CMV-CD38. Lentivirus was packaged by co-transfecting pCDH-CMV-CD38, pCMV-VSV-G, and pCMV8R8.91 into HEK293T cells. Human CD38-overexpressing HEK293T cells were transduced with lentivirus infection and cultured with 1 μg/mL puromycin three days post-infection.

MM.1S cells = assay: alamarBlue cell viability assay, MM.1S cells; type: cell-based, human; settings: even at doses >20 μM
Protocol: as §1, §2

U266-CD38- cells = assay: alamarBlue cell viability assay, U266-CD38- cells; type: cell-based; settings: 5 days, FIG. 12F
Protocol: as §1, §2

EC50 (human CD38): 0.84 nM
B1: 2-chain (anti-CD38 scFv)-hIgG1.Fc-(Gly)3-BM fusion protein: dimer of (anti-CD38 scFv)-hIgG1.Fc-(Gly)3-BM, SEQ ID NO: 12; scFv VL and VH derived from daratumumab (protein)
chain: EIVLTQSPATLSLSPGERATLSCRASQSVSSYLAWYQQKPGQAPRLLIYDASNRATGIPARFSGSGSGTDFTLTISSLEPEDFAVYYCQQRSNWPPTFGQGTKVEIKGSTSGSGKPGSGEGSTKGEVQLLESGGGLVQPGGSLRLSCAVSGFTFNSFAMSWVRQAPGKGLEWVSAISGSGGGTYYADSVKGRFTISRDNSKNTLYLQMNSLRAEDTAVYFCAKDKILWFGEPVFDYWGQGTLVTVSSGGGASDKTHTCPPCPAPELLGGPSVFLFPPKPKDTLMISRTPEVTCVVVDVSHEDPEVKFNWYVDGVEVHNAKTKPREEQYNSTYRVVSVLTVLHQDWLNGKDYKCKVSNKALPAPIEKTISKAKGQPREPQVYTLPPSRDELTRNQVSLTCLVKGFYPSDIAVEWESNGQPENNYKTTPPVLDSDGSFFLYSKLTVDKSRWQQGNVFSCSVMHEALHNHYTQKSLSLSPGGGGACPGHA
modifications: homodimer
notes: scFv VL and VH derived from daratumumab
effect of cell death (H929 cells): no effect of cell death
effect of cell death (MM.1S cells): no effect of cell death
killing effect (U266-CD38- cells): did not possess any killing effect
